Key:
[1] = molecular target: post-translational lamin construct with a single N-terminal cysteine (pJS81) (human) (UniProt P02545); test: SEC
[2] = molecular target: the molecule itself; test: optical tweezers

Molecule | stoichiometry N [1] | mean rupture force [2]
post-translational lamin construct with a single N-terminal cysteine (pJS81) (from UniProt P02545 31-311) (domain or fragment) | 2 | –
LMNA_(31-123) ribosome-bound nascent chain (domain or fragment) EKEDLQELNDRLAVYIDRVRSLETENAGLRLRITESEEVVSREVSGIKAAYEAELGDARKTLDSVAKERARLQLELSKVREEFKELKARNTKK | – | 7 pN
LMNA_(31-311) ribosome-bound nascent chain (domain or fragment) EKEDLQELNDRLAVYIDRVRSLETENAGLRLRITESEEVVSREVSGIKAAYEAELGDARKTLDSVAKERARLQLELSKVREEFKELKARNTKKEGDLIAAQARLKDLEALLNSKEAALSTALSEKRTLEGELHDLRGQVAKLEAALGEAKKQLQDEMLRRVDAENRLQTMKEELDFQKNIYSEELRETKRRHETRLVEIDNGKQREFESRLADALQELRAQHEDQVEQYKKELEKTYSAKLDNARQSAERNSNLVGAAHEELQQSRIRIDSLSAQLSQLQK | – | 14 pN
